# Measurements reported in article PMC11189522, “Exploring the sequence-function space of microbial fucosidases” (Communications Chemistry, 2024).
# How the values were obtained:
# BaGH29^26A = target: T1, BaGH29^26A (Bifidobacterium asteroides, UniProt A0A0F4KU40); assay: X-ray crystallography; type: binding; details: co-crystallised with 5 mM 2'FL; active site
# T1 construct: gene JF69_08700
# [1] = system: C[C@@H]1O[C@@H](Oc2ccc([N+](=O)[O-])cc2Cl)[C@@H](O)[C@H](O)[C@@H]1O; assay: purified protein; details: pH 6.0; 37.0 °C
# purified protein [2] = substrate: C[C@@H]1O[C@@H](Oc2ccc([N+](=O)[O-])cc2Cl)[C@@H](O)[C@H](O)[C@@H]1O; assay: purified protein; details: pH 6.0; 37.0 °C; remark: listed apart in the source
# purified protein [3] = substrate: C[C@@H]1O[C@@H](Oc2ccc([N+](=O)[O-])cc2Cl)[C@@H](O)[C@H](O)[C@@H]1O; assay: purified protein; type: biochemical, Sphingopyxis terrae; details: 50 mM citrate pH 6, 37 °C
# purified protein [4] = substrate: C[C@@H]1O[C@@H](Oc2ccc([N+](=O)[O-])cc2Cl)[C@@H](O)[C@H](O)[C@@H]1O; assay: purified protein; type: biochemical, Tannerella forsythia; details: 50 mM citrate pH 6, 37 °C
# purified protein [5] = substrate: C[C@@H]1O[C@@H](Oc2ccc([N+](=O)[O-])cc2Cl)[C@@H](O)[C@H](O)[C@@H]1O; assay: purified protein; type: biochemical, Niastella yeongjuensis; details: 50 mM citrate pH 6, 37 °C
# purified protein [6] = substrate: C[C@@H]1O[C@@H](Oc2ccc([N+](=O)[O-])cc2Cl)[C@@H](O)[C@H](O)[C@@H]1O; assay: purified protein; type: biochemical, Sphaerochaeta globosa; details: 50 mM citrate pH 6, 37 °C
# purified protein [7] = substrate: C[C@@H]1O[C@@H](Oc2ccc([N+](=O)[O-])cc2Cl)[C@@H](O)[C@H](O)[C@@H]1O; assay: purified protein; type: biochemical, Bifidobacterium asteroides; details: 50 mM citrate pH 6, 37 °C
# purified protein [8] = substrate: C[C@@H]1O[C@@H](Oc2ccc([N+](=O)[O-])cc2Cl)[C@@H](O)[C@H](O)[C@@H]1O; assay: purified protein; type: biochemical, Porphyromonas gingivalis; details: 50 mM citrate pH 6, 37 °C
# purified protein [9] = substrate: C[C@@H]1O[C@@H](Oc2ccc([N+](=O)[O-])cc2Cl)[C@@H](O)[C@H](O)[C@@H]1O; assay: purified protein; type: biochemical, Streptococcus mitis; details: 50 mM citrate pH 6, 37 °C
molecule,measurement,setting,value
C[C@@H]1O[C@@H](O)[C@@H](O)[C@H](O)[C@@H]1O [Fuc],X-ray crystallography,BaGH29^26A,resulting in a complex with Fuc bound in the active site
FbGH29^26A (Firmicutes bacterium CAG:345),Km,[1],188.10 ± 32.870 µM
LaGH29^3A (Lysobacter antibioticus),Km,[1],208.10 ± 33.240 µM
BsGH29^44B (Bacteroides sp. SM23_62),Km,[1],299.60 ± 25.340 µM
RsGH29^3A (Rhodopirellula sp. SWK7),Km,[1],668.00 ± 69.040 µM
RiGH29^2A (Roseburia intestinalis) (protein) MSEQQKEQQLLETVDRIIAEGPYQPAWSSLMQTKTPDWFKQKRFGIFIHWGVYSVPANSNEWYPRNMYIEGMPAYEHHIKTYGSQKDFGYKDFIPMFHAEKFDPAEWVRLFKEAGAGYVFPVAEHHDGFQMYKSELSHWNSAEMGPKRDVLGELKAEIEKQGLTFCTSSHRAEHWFFLGHGKEFDSDIKEPLQKGDLYWPSMPEPDAEDLYGEPYPTEEFLNDWLARTAEIILNYKPSLLYFDWWVQHQAFKPYLKKLAAFYYNCGVKWGKDVKICYKHDAMMFGSGIVEVERGGFAEAKPYDWQTDTAVARNSWCYTDTLDYKSSNEIICTLVDVVSKNGNLLLNIGPKADGTIPDGDRAILEDLAKWMKVNSEAVIGANVWRKSMEGPTAAAEGQFQDQKELKFTNKDYRFTINHGNIYAIALQCPKDGVFCIRSLADSSDQNVPEFHGIIESVDILGYDGRLQWSVDGEGLHVTAPGIDSEFPVVVRVRPE,Km,purified protein [2],302.30 ± 7.0500 µM
StGH29^nc (Sphingopyxis terrae subsp. ummariensis) (protein) AATVTGAGLGPQPRFPITGLPVLNPILRLYPEKSVFRSGDIRFGVGELEMMIPFLGTGEIVWSVNVSEAKRYRIALCYSTVNETQPVTISVNGQDVPFAAPRTKGYFIPHPEGPVDDPGDPDTDGFWRMREYYLFERKPVAGEVDLVRGVNVVKLKVTAPKGKEAFRLRSIELTPVDKVAEIEADLTRQRANRANTDWFANAGYGMWFHFLDLTTPRVGPRKSYEDAVNALDVPKLAKMVDDCGARYLIWTVNHGNPTCPAPIKAWERLHPGMTTKRDLIMELADELAKYNIELMLYQNCPGTGGLIQQHQRAIDTPTFSEVEYANQLIDVFNEFGARYGTKVKGWWLDSWFQTMESYPNLPNEAINRAIKSGNRNCMSSFNGWAFPNEVECQDYWCGEITDLPAKPFGARYLKDGPAAGLQAHSAIKLDAPWFHVTENMEMEPPLYSARELADYIAICQRDQAPVTLGVGIYQDGTIGPKSYAVLTELRGLIRKGKARR,Km,purified protein [3],290.60 ± 19.810 µM
same,kcat,purified protein [3],0.00733 s⁻¹
TfFuc1^8A (Tannerella forsythia 92A2) (protein) PAQPGYTPSADNLKARETFQDDKFGIFIHWGIYSMLADGEWVMHNKNLNWEEYAKLASGFYPAKFNAAEWVAAIKASGAKYITITSRHHDGFSMYATQQSDYNIVDATPFKRDVIHELADECRKQGIRLHLYYSHLDWRRDDYYPLGRTGKGTGRTTQGKWEDYCAFMNNQLTELLTNYGLIGAIWFDGMWDKDIYPDGMTAKTWNLNEQYTLIHRLQPACLIGNNHHITPFAGEDIQIFERDLPGENKAGLSGQDISRLPLETCETMNGMWGYKITDQDYKSTKILIQYLVKAAGKNANLLMNVGPQPNGELPTVAVQRLREMGEWMKIYAPTIQGTRGGVVTPRDWGVTTQKGKTLYVHVLNLDDKALFLPYAGNKLKSAVEYQSRKSVRFIQDRDGILLKFTDKPHSPDYVLELTFANELPLN,Km,purified protein [4],153.70 ± 21.810 µM
same,kcat,purified protein [4],8.9117 s⁻¹
NyGH29^4A (Niastella yeongjuensis) (protein) QTYSPNWESLDARPAPQWFKDAKFGIFIHWGVYSVPAWAPVGKDYAVYSKYSEWYWNRLVTDSSKVGKAFRAYHNSTYGPNFKYQDFAPLFKAELFNPEQWADVFKNAGAQYVVLTSKHHDGFALWPSAEAWNWNAADVGPHKDLAGELTNAVKEKGLHMGFYYSLYEWFNPLYKSDIDKYVSEHMMPQLKDLVNRYKPDIIWPDGEWEHPSETWKSTQFLAWLYNESPVKNTVVVNDRWGKETRSKHGGYYTTEYDIVHNEDASKKQFEHPWEECRGIGGSFGYNRNETLGDYETSDAVIHMLIQKVARGGNLLLDIGPAADGTIPVIMQQRLADMGAWLKTNGEAIFGTTATKQPSINGAWFTQKNMDLYVILTAKMDKPLTFDLATAPGKATLLGVNKKVTVSYRSGKCTINPLELYPNLPAGGYAWVIKLEGAAGK,Km,purified protein [5],279.80 ± 10.820 µM
same,kcat,purified protein [5],0.00383 s⁻¹
SgGH29^9A (Sphaerochaeta globosa str. Buddy) (protein) MKHEAVQQWLDLQFGLFIHFGLYSLPGGVWKGERITRGYSEQILSHGYLPQADYEALTEQFSLPEFNPKHIVTTAKQAGMRYLVITTKHHDGFCLFDTNTTDYKSTNAACKRDIVKDLSDECKKQGLAFGIYFSWIDWHFSEAAAISSHNSDPIPSSHQRLNIAQLTELLSNYGPMCELWMDMGAPTAEQSQEVYDLVQSLQPQCMVNGRIWNDKQDFLTMGDNQLPAVPLNCPWQTPASIYKETWGYRSWQVRGDRDEKIQELSDTARKVVQEGGNYLLNIGLMGTGAIQSFEQEVLEGIGTVLAKNPLKREQNKRILPKIVPGQLCAEPLVAYRYTGTEYYSYRPIPTTLCWALQLNEDTSICIGWESDQGLAREQKLCLEIAGKQYYSSLQKGRTSDTFITALKLKKGKHEICLHTIGDELKRPELVDTTLRLVLRKEGK,Km,purified protein [6],495.20 ± 171.80 µM
same,kcat,purified protein [6],2.4117 s⁻¹
BaGH29^26A (Bifidobacterium asteroides) (protein) MSDTVEWFKQAKYGMMIHWGLYSLLGGEYQGKSSSNYAEWVQSKLQIPNKEYERLTQAFNPIYFDADAIIDLAKRCGMQYLVVTTKHHDGFAMYRSLVDPYNVYDATPFHRDVIGELSLACRKAGLRFGLYYSQDLDWHEPDGGGYLSNDIETAGTTWDNSWDFTGEKNYDRAFKHKIMPQIEEIMSNYGEISVAWFDVPMTLSDEQSQTIYDTVKRLQPDCLINSRLGNGRYDYVSLGDNEIPEDSDASDKATSDGNVDYNSIEGFKPSKLGLYETAGTINDSWGFAYHDQNWKSPQTIHDYKAHLNKYGINYLLNVGLDGLGRVPMAAEQALLGARALEA,Km,purified protein [7],222.00 ± 20.100 µM
same,kcat,purified protein [7],12.108 s⁻¹
PgGH29^1B (Porphyromonas gingivalis ATCC 33277) (protein) GQGQEVYYPGSVVFPADATLEQKVEMAAKVVPTLQQLAWQQMELTAFLHFGINTFTDSEWGDGKEDPALFNPVELDARQWVRILHEAGFRMVILTAKHHDGFCLWPTATTRHSVASSPWREGKGDVVKEVRAACEEYGMKFGIYLSPWDRNAECYGDSHRYNRFFVSQLTELLTHYGEVHEVWFDGANGEGPNGKRQEYDWETFYDTIRRLQPQAVMAIMGDDVRWVGNERGLGRTTEWSATVLTPGIYSRSKTERNRLGIRENSPDLGSREVLKEAGEIFWYPSEVDVSIRPGWFYHAAEDKKVKSLDKLVDIYFQSVGYNSVLLLNVPPDRRGLIHEADALRLKEWADYLGRAFAHDRVVDSARYAVVQEHAVEEYALESKTHINILMLQEDITKGQRTEAFTVEAWVDGAWQEIGRGTTIGYKRLLRIPAVETDRIRVRIEQCRLPVNLCRVAVYYAEPPEQVVADESWNDIPRADWKLLSDDPLTIDLGREVMLRAFTYAPYKAEAKPTTAVRYRLAVSEDGRQWREIPTMGEFANVINNPLPQTVDMNQIVRTRFIRLDATAASGDKAVITMQEIGVTVE,Km,purified protein [8],302.10 ± 9.6900 µM
same,kcat,purified protein [8],1.8767 s⁻¹
SmGH29^1B (Streptococcus mitis B6) (protein) MVREIKPHGPLPSQAQLAYLEDELAAFIHFGPNTFYDQEWGTGQEDSERFNPTRLDAREWVRVLKEMGFKKLILVVKHHDGFVLYPTAYTDYSVKASPWRNGEGDLLLEVSQAATEFDMDMGVYLSPWDAHSPLYHVDQEADYNAYYLAQLKEILSNPAYGNGGKFAEVWMDGARGEGAQKVNYEFEKWFETIRDLQGDCLIFSTEGTSIRWIGNERGYAGDPLWQKVNPDKLGTEAALDYLQHGDSSGTIFSIGEADVSIRPGWFYHEEQDPKSLEELVEIYFHSVGRGTPLLLNIPPNQDGLFDEKDIKRLYEFATYRNELYKEDLALGAKVYGPALSADFACHHLTDGLESSSWASDADLPIQLELDLGFPKTFDVIELREDLKLGQRIAAFHVQVEVDGVWQEFGTGFTVGHKRLLRGPLVEAQKVRVMITESQDLPVLTKISLYKTPSLSQKEVVQGLAFAEKSLSVAKGETLHFRIERSESNTPLEAKISIQPGTGVHGIAYQDEIQVLQFQAGESKKDLCLPTLHFAADKTLDFYLNLTVDGQLVDQLQVQVS,Km,purified protein [9],289.50 ± 14.610 µM
same,kcat,purified protein [9],0.865 s⁻¹
